Reference: patent publication US20110212853

Target: recombinant human MCP-1 N1pE (human MCP-1 with an N-terminal pyroglutamate)

B1: recombinant human dipeptidyl peptidase 4 (protein)
chain: NKGTDDATADSRKTYTLTDYLKNTYRLKLYSLRWISDHEYLYKQENNILVFNAEYGNSSVFLENSTFDEFGHSINDYSISPDGQFILLEYNYVKQWRHSYTASYDIYDLNKRQLITEERIPNNTQWVTWSPVGHKLAYVWNNDIYVKIEPNLPSYRITWTGKEDIIYNGITDWVYEEEVFSAYSALWWSPNGTFLAYAQFNDTEVPLIEYSFYSDESLQYPKTVRVPYPKAGAVNPTVKFFVVNTDSLSSVTNATSIQITAPASMLIGDHYLCDVTWATQERISLQWLRRIQNYSVMDICDYDESSGRWNCLVARQHIEMSTTGWVGRFRPSEPHFTLDGNSFYKIISNEEGYRHICYFQIDKKDCTFITKGTWEVIGIEALTSDYLYYISNEYKGMPGGRNLYKIQLSDYTKVTCLSCELNPERCQYYSVSFSKEAKYYQLRCSGPGLPLYTLHSSVNDKGLRVLEDNSALDKMLQNVQMPSKKLDFIILNETKFWYQMILPPHFDKSKKYPLLLDVYAGPCSQKADTVFRLNWATYLASTENIIVASFDGRGSGYQGDKIMHAINRRLGTFEVEDQIEAARQFSKMGFVDNKRIAIWGWSYGGYVTSMVLGSGSGVFKCGIAVAPVSRWEYYDSVYTERYMGLPTPEDNLDHYRNSTVMSRAENFKQVEYLLIHGTADDNVHFQQSAQISKALVDVGVDFQAMWYTDEDHGIASSTAHQHIYTHMSHFIKQCFSLP
N-terminal cleavage, Maldi-TOF mass spectrometry: MCP-1 is protected by a N-terminal pGlu-residue, which confers resistance against N-terminal cleavage by aminopeptidases, e.g. DP4
